{
  "source": "the supplement of paper PMC10567573",
  "parents": {"B1": {"name": "ZNF449 (parent)", "chain": "EPHKCPECGKRFLRSSDLYRHQRL"}},
  "data": [
    {"variants_of": "B1", "experiment": "protein stability index of a GFP-peptide fusion (GPS, HEK-293T) (PSI 1-6); higher = more stable", "conditions": "c terminus: a fixed tail appended", "values": [
      {"variant": "EPHKCPECSKRFLRSSDLYRHQRL", "note": "[G9S]", "protein stability index": 3.36},
      {"variant": "EPHKCPECHKRFLRSSDLYRHQRL", "note": "[G9H]", "protein stability index": 3.08},
      {"variant": "EPHKCPECFKRFLRSSDLYRHQRL", "note": "[G9F]", "protein stability index": 2.52},
      {"variant": "EPHKCPECTKRFLRSSDLYRHQRL", "note": "[G9T]", "protein stability index": 2.32},
      {"variant": "EPHKCPECCKRFLRSSDLYRHQRL", "note": "[G9C]", "protein stability index": 2.18},
      {"variant": "EPHKCPECAKRFLRSSDLYRHQRL", "note": "[G9A]", "protein stability index": 2.24},
      {"variant": "EPHKCPECVKRFLRSSDLYRHQRL", "note": "[G9V]", "protein stability index": 2.54},
      {"variant": "EPHKCPECPKRFLRSSDLYRHQRL", "note": "[G9P]", "protein stability index": 2.82},
      {"variant": "EPHKCPECKKRFLRSSDLYRHQRL", "note": "[G9K]", "protein stability index": 2.61},
      {"variant": "EPHKCPECRKRFLRSSDLYRHQRL", "note": "[G9R]", "protein stability index": 2.31},
      {"variant": "EPHKCPECYKRFLRSSDLYRHQRL", "note": "[G9Y]", "protein stability index": 2.8},
      {"variant": "EPHKCPECNKRFLRSSDLYRHQRL", "note": "[G9N]", "protein stability index": 3.14},
      {"variant": "EPHKCPECWKRFLRSSDLYRHQRL", "note": "[G9W]", "protein stability index": 2.12},
      {"variant": "EPHKCPECQKRFLRSSDLYRHQRL", "note": "[G9Q]", "protein stability index": 3.16},
      {"variant": "EPHKCPECLKRFLRSSDLYRHQRL", "note": "[G9L]", "protein stability index": 2.3},
      {"variant": "EPHKCPECDKRFLRSSDLYRHQRL", "note": "[G9D]", "protein stability index": 2.99},
      {"variant": "EPHKCPECMKRFLRSSDLYRHQRL", "note": "[G9M]", "protein stability index": 2.72},
      {"variant": "EPHKCPECEKRFLRSSDLYRHQRL", "note": "[G9E]", "protein stability index": 3.15},
      {"variant": "EPHKCPECIKRFLRSSDLYRHQRL", "note": "[G9I]", "protein stability index": 2.65},
      {"variant": "EPHKNPECGKRFLRSSDLYRHQRL", "note": "[C5N]", "protein stability index": 3.41},
      {"variant": "EPHKWPECGKRFLRSSDLYRHQRL", "note": "[C5W]", "protein stability index": 3.01},
      {"variant": "EPHKQPECGKRFLRSSDLYRHQRL", "note": "[C5Q]", "protein stability index": 3.6},
      {"variant": "EPHKPPECGKRFLRSSDLYRHQRL", "note": "[C5P]", "protein stability index": 3.07},
      {"variant": "EPHKGPECGKRFLRSSDLYRHQRL", "note": "[C5G]", "protein stability index": 2.63},
      {"variant": "EPHKFPECGKRFLRSSDLYRHQRL", "note": "[C5F]", "protein stability index": 2.5},
      {"variant": "EPHKSPECGKRFLRSSDLYRHQRL", "note": "[C5S]", "protein stability index": 3.44},
      {"variant": "EPHKIPECGKRFLRSSDLYRHQRL", "note": "[C5I]", "protein stability index": 3.26},
      {"variant": "EPHKDPECGKRFLRSSDLYRHQRL", "note": "[C5D]", "protein stability index": 3.69},
      {"variant": "EPHKKPECGKRFLRSSDLYRHQRL", "note": "[C5K]", "protein stability index": 4},
      {"variant": "EPHKMPECGKRFLRSSDLYRHQRL", "note": "[C5M]", "protein stability index": 3.06},
      {"variant": "EPHKAPECGKRFLRSSDLYRHQRL", "note": "[C5A]", "protein stability index": 3.69},
      {"variant": "EPHKTPECGKRFLRSSDLYRHQRL", "note": "[C5T]", "protein stability index": 2.79},
      {"variant": "EPHKHPECGKRFLRSSDLYRHQRL", "note": "[C5H]", "protein stability index": 3.19},
      {"variant": "EPHKVPECGKRFLRSSDLYRHQRL", "note": "[C5V]", "protein stability index": 2.87},
      {"variant": "EPHKYPECGKRFLRSSDLYRHQRL", "note": "[C5Y]", "protein stability index": 3.14},
      {"variant": "EPHKLPECGKRFLRSSDLYRHQRL", "note": "[C5L]", "protein stability index": 3.3},
      {"variant": "EPHKEPECGKRFLRSSDLYRHQRL", "note": "[C5E]", "protein stability index": 3.56},
      {"variant": "EPHKRPECGKRFLRSSDLYRHQRL", "note": "[C5R]", "protein stability index": 3.14},
      {"variant": "EPHKCPEYGKRFLRSSDLYRHQRL", "note": "[C8Y]", "protein stability index": 3.24},
      {"variant": "EPHKCPEPGKRFLRSSDLYRHQRL", "note": "[C8P]", "protein stability index": 3.51},
      {"variant": "EPHKCPETGKRFLRSSDLYRHQRL", "note": "[C8T]", "protein stability index": 3.36},
      {"variant": "EPHKCPEIGKRFLRSSDLYRHQRL", "note": "[C8I]", "protein stability index": 3.06},
      {"variant": "EPHKCPESGKRFLRSSDLYRHQRL", "note": "[C8S]", "protein stability index": 3.37},
      {"variant": "EPHKCPEWGKRFLRSSDLYRHQRL", "note": "[C8W]", "protein stability index": 2.64},
      {"variant": "EPHKCPEQGKRFLRSSDLYRHQRL", "note": "[C8Q]", "protein stability index": 3.43},
      {"variant": "EPHKCPEKGKRFLRSSDLYRHQRL", "note": "[C8K]", "protein stability index": 3.75},
      {"variant": "EPHKCPEDGKRFLRSSDLYRHQRL", "note": "[C8D]", "protein stability index": 4.03},
      {"variant": "EPHKCPEEGKRFLRSSDLYRHQRL", "note": "[C8E]", "protein stability index": 4.02},
      {"variant": "EPHKCPEAGKRFLRSSDLYRHQRL", "note": "[C8A]", "protein stability index": 3.24},
      {"variant": "EPHKCPELGKRFLRSSDLYRHQRL", "note": "[C8L]", "protein stability index": 3.01},
      {"variant": "EPHKCPENGKRFLRSSDLYRHQRL", "note": "[C8N]", "protein stability index": 3.16},
      {"variant": "EPHKCPERGKRFLRSSDLYRHQRL", "note": "[C8R]", "protein stability index": 3.08},
      {"variant": "EPHKCPEGGKRFLRSSDLYRHQRL", "note": "[C8G]", "protein stability index": 3.3},
      {"variant": "EPHKCPEFGKRFLRSSDLYRHQRL", "note": "[C8F]", "protein stability index": 2.72},
      {"variant": "EPHKCPEVGKRFLRSSDLYRHQRL", "note": "[C8V]", "protein stability index": 3.25},
      {"variant": "EPHKCPEHGKRFLRSSDLYRHQRL", "note": "[C8H]", "protein stability index": 3.26},
      {"variant": "EPHKCPEMGKRFLRSSDLYRHQRL", "note": "[C8M]", "protein stability index": 3.05},
      {"variant": "EPHKCPECGARFLRSSDLYRHQRL", "note": "[K10A]", "protein stability index": 3.97},
      {"variant": "EPHKCPECGPRFLRSSDLYRHQRL", "note": "[K10P]", "protein stability index": 2.33},
      {"variant": "EPHKCPECGIRFLRSSDLYRHQRL", "note": "[K10I]", "protein stability index": 3.32},
      {"variant": "EPHKCPECGCRFLRSSDLYRHQRL", "note": "[K10C]", "protein stability index": 2.48},
      {"variant": "EPHKCPECGTRFLRSSDLYRHQRL", "note": "[K10T]", "protein stability index": 3.5},
      {"variant": "EPHKCPECGMRFLRSSDLYRHQRL", "note": "[K10M]", "protein stability index": 3.99},
      {"variant": "EPHKCPECGGRFLRSSDLYRHQRL", "note": "[K10G]", "protein stability index": 2.11},
      {"variant": "EPHKCPECGDRFLRSSDLYRHQRL", "note": "[K10D]", "protein stability index": 2.44},
      {"variant": "EPHKCPECGNRFLRSSDLYRHQRL", "note": "[K10N]", "protein stability index": 2.52},
      {"variant": "EPHKCPECGERFLRSSDLYRHQRL", "note": "[K10E]", "protein stability index": 3.63},
      {"variant": "EPHKCPECGVRFLRSSDLYRHQRL", "note": "[K10V]", "protein stability index": 3.31},
      {"variant": "EPHKCPECGHRFLRSSDLYRHQRL", "note": "[K10H]", "protein stability index": 3.15},
      {"variant": "EPHKCPECGLRFLRSSDLYRHQRL", "note": "[K10L]", "protein stability index": 3.65},
      {"variant": "EPHKCPECGFRFLRSSDLYRHQRL", "note": "[K10F]", "protein stability index": 2.52},
      {"variant": "EPHKCPECGSRFLRSSDLYRHQRL", "note": "[K10S]", "protein stability index": 3.21},
      {"variant": "EPHKCPECGRRFLRSSDLYRHQRL", "note": "[K10R]", "protein stability index": 3.55},
      {"variant": "EPHKCPECGQRFLRSSDLYRHQRL", "note": "[K10Q]", "protein stability index": 4.08},
      {"variant": "EPDKCPECGKRFLRSSDLYRHQRL", "note": "[H3D]", "protein stability index": 3.23},
      {"variant": "EPGKCPECGKRFLRSSDLYRHQRL", "note": "[H3G]", "protein stability index": 3.02},
      {"variant": "EPCKCPECGKRFLRSSDLYRHQRL", "note": "[H3C]", "protein stability index": 3.58},
      {"variant": "EPEKCPECGKRFLRSSDLYRHQRL", "note": "[H3E]", "protein stability index": 2.99},
      {"variant": "EPPKCPECGKRFLRSSDLYRHQRL", "note": "[H3P]", "protein stability index": 3.33},
      {"variant": "EPLKCPECGKRFLRSSDLYRHQRL", "note": "[H3L]", "protein stability index": 4.89},
      {"variant": "EPYKCPECGKRFLRSSDLYRHQRL", "note": "[H3Y]", "protein stability index": 4.7},
      {"variant": "EPRKCPECGKRFLRSSDLYRHQRL", "note": "[H3R]", "protein stability index": 3.29},
      {"variant": "EPNKCPECGKRFLRSSDLYRHQRL", "note": "[H3N]", "protein stability index": 4.49},
      {"variant": "EPQKCPECGKRFLRSSDLYRHQRL", "note": "[H3Q]", "protein stability index": 3.31},
      {"variant": "EPSKCPECGKRFLRSSDLYRHQRL", "note": "[H3S]", "protein stability index": 2.97},
      {"variant": "EPTKCPECGKRFLRSSDLYRHQRL", "note": "[H3T]", "protein stability index": 3.9},
      {"variant": "EPWKCPECGKRFLRSSDLYRHQRL", "note": "[H3W]", "protein stability index": 4},
      {"variant": "EPAKCPECGKRFLRSSDLYRHQRL", "note": "[H3A]", "protein stability index": 3.25},
      {"variant": "EPKKCPECGKRFLRSSDLYRHQRL", "note": "[H3K]", "protein stability index": 3.23},
      {"variant": "EPFKCPECGKRFLRSSDLYRHQRL", "note": "[H3F]", "protein stability index": 4.09},
      {"variant": "EPIKCPECGKRFLRSSDLYRHQRL", "note": "[H3I]", "protein stability index": 4.1},
      {"variant": "EPVKCPECGKRFLRSSDLYRHQRL", "note": "[H3V]", "protein stability index": 3.72},
      {"variant": "EPMKCPECGKRFLRSSDLYRHQRL", "note": "[H3M]", "protein stability index": 3.79},
      {"variant": "EPHMCPECGKRFLRSSDLYRHQRL", "note": "[K4M]", "protein stability index": 4.7}
    ]}
  ]
}
